Test results: publication PMC9531181

Target: covalently linked hexamer of ClpX-ΔN with a single biotinylation site (ClpX6B)
Experiment: single-molecule TIRF microscopy (dwell time); ClpX6B (10 nM, preincubated with 2 mM ATP) held by streptavidin on biotinylated BSA on DDS-Tween-20 passivated coverslips; 5 nM of ssrA (Cy3) and ssrADD (Cy5) substrates flowed in with 100 uM MTX, 2 mM ATP, 25 ug/ml BSA, Trolox and oxygen scavenger; ClpX reaction buffer (25 mM Hepes pH 7.4, 100 mM KCl, 20 mM MgCl2, 10% glycerol); 30 °C; dwell times fitted with a single exponential

- reduction of dwell time against Ref11: 50%
Substance: cpGFP::DHFR::polyG11::ssrA, MTX-bound
